Measurements from patent US20250206834A1 (published 2025).
Read-outs that look alike come from different tables or passages of the source.

T1: human CEACAM5 on cells (human, UniProt P06731 35-685)
T1 chain: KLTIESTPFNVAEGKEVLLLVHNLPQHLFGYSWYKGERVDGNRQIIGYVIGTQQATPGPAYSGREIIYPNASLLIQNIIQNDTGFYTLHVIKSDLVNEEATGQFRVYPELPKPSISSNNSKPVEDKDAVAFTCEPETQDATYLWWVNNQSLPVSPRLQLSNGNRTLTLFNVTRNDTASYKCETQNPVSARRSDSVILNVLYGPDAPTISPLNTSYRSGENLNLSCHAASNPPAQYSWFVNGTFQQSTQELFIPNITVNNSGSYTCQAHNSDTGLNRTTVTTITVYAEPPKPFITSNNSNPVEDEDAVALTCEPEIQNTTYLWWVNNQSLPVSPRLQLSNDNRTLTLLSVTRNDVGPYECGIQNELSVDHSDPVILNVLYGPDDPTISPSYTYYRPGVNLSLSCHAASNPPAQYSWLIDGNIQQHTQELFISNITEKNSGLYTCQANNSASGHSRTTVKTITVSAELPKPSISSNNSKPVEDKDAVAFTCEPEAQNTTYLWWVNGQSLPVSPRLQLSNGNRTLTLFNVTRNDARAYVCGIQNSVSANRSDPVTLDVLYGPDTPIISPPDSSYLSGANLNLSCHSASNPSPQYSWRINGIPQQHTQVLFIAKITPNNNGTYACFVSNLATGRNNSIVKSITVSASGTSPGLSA


What was measured:
human 4-1BB [1] = molecular target: T2, human 4-1BB (human, UniProt Q07011 24-255); test: FACS cell binding
human CEACAM5 on cells [2] = molecular target: T1, human CEACAM5 on cells; test: FACS cell binding; MKN-45 cells
human 4-1BB [3] = molecular target: T2, human 4-1BB; test: FACS cell binding; plot key prints IMMU130-263-1-3
human CEACAM5 on cells [4] = molecular target: T1, human CEACAM5 on cells; test: FACS cell binding; MKN-45 cells
human 4-1BB [5] = molecular target: T2, human 4-1BB; test: FACS cell binding; remark: listed apart in the source

T2 sequence (Q07011 24-255): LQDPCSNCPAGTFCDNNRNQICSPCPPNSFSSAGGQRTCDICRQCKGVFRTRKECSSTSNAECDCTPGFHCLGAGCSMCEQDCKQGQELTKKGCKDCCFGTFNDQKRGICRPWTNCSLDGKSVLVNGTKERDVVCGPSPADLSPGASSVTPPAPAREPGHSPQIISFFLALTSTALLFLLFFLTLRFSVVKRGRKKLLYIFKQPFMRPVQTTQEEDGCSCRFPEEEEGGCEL

| EC50 (human 4-1BB [1]) | EC50 (human CEACAM5 on cells [2]) | EC50 (human 4-1BB [3]) | EC50 (human CEACAM5 on cells [4]) | EC50 (human 4-1BB [5]) | Binder |
| --- | --- | --- | --- | --- | --- |
| 0.37 nM | – | – | – | – | VV02-1SP (1)-73 huNb_1_3 (Fc fusion) VHH: EVDLVESGGGLVQPGGSLRLSCAVSGFTFSSSAMSWARQAPGKEFEWVSSIYSSGKTYYVESVKGRFTISRDNAKNTVYLQMSSLRPEDTAVYYCATWKTLRVGVWDESDYWGQGTLVTVSS |
| 0.58 nM | 5.38 nM | 1.23 nM | 8.47 nM | – | IMMU130-263-1-3 (bispecific antibody) heavy (part 1 of 2): EVQLVESGGGVVQPGRSLRLSCSASGFDFTTYWMSWVRQAPGKGLEWIGEIHPDSSTINYAPSLKDRFTISRDNAKNTLFLQMDSLRPEDTGVYFCASLYFGFPWFAYWGQGTPVTVSS heavy (part 2 of 2): GGGGSGGGGSGGGGSGGGGSEVQLLESGGGLVQPGGSLRLSCAASGFTFSSSAMSWARQTPGKGFEWVSGIYSGGSTYYTESVKDRFTISRDNSKNTVYLQMNSLKPEDTAVYYCATWGTLRFGVWAEYDHWGQGTQVTVSS light: DIQLTQSPSSLSASVGDRVTITCKASQDVGTSVAWYQQKPGKAPKLLIYWTSTRHTGVPSRFSGSGSGTDFTFTISSLQPEDIATYYCQQYSLYRSFGQGTKVEIK |
| – | 3.48 nM | – | 5.31 nM | – | Labetuzumab (antibody, V domains shown) VH: EVQLVESGGGVVQPGRSLRLSCSASGFDFTTYWMSWVRQAPGKGLEWIGEIHPDSSTINYAPSLKDRFTISRDNAKNTLFLQMDSLRPEDTGVYFCASLYFGFPWFAYWGQGTPVTVSS VL: DIQLTQSPSSLSASVGDRVTITCKASQDVGTSVAWYQQKPGKAPKLLIYWTSTRHTGVPSRFSGSGSGTDFTFTISSLQPEDIATYYCQQYSLYRSFGQGTKVEIK |
| – | – | – | 7.75 nM | 1.2 nM | optimized bispecific antibody with 263 huNb-1-3_2 (bispecific antibody) heavy (part 1 of 2): EVQLVESGGGVVQPGRSLRLSCSASGFDFTTYWMSWVRQAPGKGLEWIGEIHPDSSTINYAPSLKDRFTISRDNAKNTLFLQMDSLRPEDTGVYFCASLYFGFPWFAYWGQGTPVTVSS heavy (part 2 of 2): GGGGSGGGGSGGGGSGGGGSEVQLVESGGGLVQPGGSLRLSCAASGFTFSSSAMSWARQAPGKGFEWVSGIYSGGSTYYTESVKDRFTISRDNAKNTVYLQMNSLKPEDTAVYYCATWGTLRFGVWAEYDHWGQGTLVTVSS light: DIQLTQSPSSLSASVGDRVTITCKASQDVGTSVAWYQQKPGKAPKLLIYWTSTRHTGVPSRFSGSGSGTDFTFTISSLQPEDIATYYCQQYSLYRSFGQGTKVEIK |
| – | – | – | – | 0.53 nM | VV02-1LP-263 huNb_1_3 (Fc fusion) VHH: EVQLLESGGGLVQPGGSLRLSCAASGFTFSSSAMSWARQTPGKGFEWVSGIYSGGSTYYTESVKDRFTISRDNSKNTVYLQMNSLKPEDTAVYYCATWGTLRFGVWAEYDHWGQGTQVTVSS |
| – | – | – | 7.34 nM | – | IMMU130-263-1-3_1 (bispecific antibody, V domains shown) VH: EVQLVESGGGVVQPGRSLRLSCSASGFDFTTYWMSWVRQAPGKGLEWIGEIHPDSSTINYAPSLKDRFTISRDNAKNTLFLQMDSLRPEDTGVYFCASLYFGFPWFAYWGQGTPVTVSS VL: DIQLTQSPSSLSASVGDRVTITCKASQDVGTSVAWYQQKPGKAPKLLIYWTSTRHTGVPSRFSGSGSGTDFTFTISSLQPEDIATYYCQQYSLYRSFGQGTKVEIK VHH: EVQLVESGGGLVQPGGSLRLSCAASGFTFSSSAMSWARQAPGKGFEWVSGIYSGGSTYYTESVKDRFTISRDNSKNTVYLQMNSLKPEDTAVYYCATWGTLRFGVWAEYDHWGQGTQVTVSS |
